Substitutions are numbered along the chain they refer to.
Assays:
H154A [1] = target: T1, H154A; assay: shotgun alanine scanning: immunofluorescence flow cytometry on HEK-293T cells expressing the mutant chimera; mean of duplicates, range in brackets
T1 construct: also called hTREM2-Dap12 chimera with H154A; not shown: Transmembrane/cytoplasmic stretch and the Dap12 portion of the chimera
T1 chain: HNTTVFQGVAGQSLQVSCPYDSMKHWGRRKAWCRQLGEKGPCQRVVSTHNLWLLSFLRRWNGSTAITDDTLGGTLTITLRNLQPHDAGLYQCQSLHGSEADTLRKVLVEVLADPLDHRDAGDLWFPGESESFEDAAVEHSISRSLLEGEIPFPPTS

D152A [2] = target: T2, D152A; assay: as above
T2 construct: also called hTREM2-Dap12 chimera with D152A; not shown: Transmembrane/cytoplasmic stretch and the Dap12 portion of the chimera
T2 chain: T1 chain with D134A, A136H

R77A = target: T3, R77A; assay: as above
T3 construct: also called hTREM2-Dap12 chimera with R77A; not shown: Transmembrane/cytoplasmic stretch and the Dap12 portion of the chimera
T3 chain: T1 chain with R59A, A136H

K42A = target: T4, K42A; assay: as above
T4 construct: also called hTREM2-Dap12 chimera with K42A; not shown: Transmembrane/cytoplasmic stretch and the Dap12 portion of the chimera
T4 chain: T1 chain with K24A, A136H

E151A [3] = target: T5, E151A; assay: as above
T5 construct: also called hTREM2-Dap12 chimera with E151A; not shown: Transmembrane/cytoplasmic stretch and the Dap12 portion of the chimera
T5 chain: T1 chain with E133A, A136H

E156A = target: T6, E156A; assay: as above
T6 construct: also called hTREM2-Dap12 chimera with E156A; not shown: Transmembrane/cytoplasmic stretch and the Dap12 portion of the chimera
T6 chain: T1 chain with A136H, E138A

H114A = target: T7, H114A; assay: as above
T7 construct: also called hTREM2-Dap12 chimera with H114A; not shown: Transmembrane/cytoplasmic stretch and the Dap12 portion of the chimera
T7 chain: T1 chain with H96A, A136H

G45A = target: T8, G45A; assay: as above
T8 construct: also called hTREM2-Dap12 chimera with G45A; not shown: Transmembrane/cytoplasmic stretch and the Dap12 portion of the chimera
T8 chain: T1 chain with G27A, A136H

[4] = target: T9, human TREM2 on primary cells (human, UniProt Q9NZC2 19-230); assay: FACS, primary hDC
T9 construct: also called TREM2 on hDC; hMAC
T9 sequence: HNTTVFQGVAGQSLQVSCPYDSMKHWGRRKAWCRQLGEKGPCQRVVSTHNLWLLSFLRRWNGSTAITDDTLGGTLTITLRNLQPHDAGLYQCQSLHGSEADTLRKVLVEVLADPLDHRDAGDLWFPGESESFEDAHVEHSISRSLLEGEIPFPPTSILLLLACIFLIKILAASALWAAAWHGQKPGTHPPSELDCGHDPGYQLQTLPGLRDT

[5] = target: T10, recombinant human TREM2-DAP12 fusion protein expressed on cells (human); assay: KD cell binding
T10 construct: also called HEKhT2; 293 cells expressing human TREM2; not shown: None of these limits is stated
T10 chain: T1 chain with A136H

H154A [6] = target: T1, H154A; assay: shotgun alanine scanning: immunofluorescence flow cytometry on HEK-293T cells expressing the mutant chimera
D152A [7] = target: T2, D152A; assay: as above
E151A [8] = target: T5, E151A; assay: as above
[9] = target: T9, human TREM2 on primary cells; assay: FACS, primary hMAC
mouse TREM2 on cells = target: T11, mouse TREM2 on cells (mouse, UniProt Q99NH8 19-227); assay: FACS on thioglycollate-induced macrophages of wild-type mice (mouse TREM2 only), gated CD11b+ F4/80+
T11 construct: recombinant on BWZ cells (with DAP12) and native on mouse macrophages; also called BWZmT2; BWZ T2
T11 sequence: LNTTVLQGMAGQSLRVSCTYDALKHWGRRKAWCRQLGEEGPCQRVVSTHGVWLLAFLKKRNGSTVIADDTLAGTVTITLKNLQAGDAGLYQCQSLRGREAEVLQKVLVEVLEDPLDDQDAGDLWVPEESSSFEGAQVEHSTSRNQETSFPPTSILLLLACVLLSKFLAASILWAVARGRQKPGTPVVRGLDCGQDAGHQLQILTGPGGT

[10] = target: T10, recombinant human TREM2-DAP12 fusion …; assay: FACS, HEKhT2 cells

B1: 9F5 (antibody, IgG1, V domains shown)
VH: QVQLQQSGPELVKPGASLKISCKASGYAFSSSWMNWVKQRPGKGLEWIGRIYPGDGDTNYNGEFRVRATLTADTSSTTAYMQLSSLTSEDSAVYFCARLLRNQPGESYAMDYWGQGASVTVSS
VL: DVVMTQTPLSLPVSLGDQASISCRSSQSLVHSNGYTYLHWYLQKPGQSPKLLIYKVSNRFSGVPDRFSGSGSGTDFTLKISRVEADDLGVYFCSQSTRVPYTFGGGTKLEIK
notes: mIgG1; VH FR 169/184/202/216, HVR 60/78/97; also called mAb T2-9F5.1; 9F5 MAb
H154A [1]
  Binding Reactivity (% WT): 3 % WT
D152A [2]
  Binding Reactivity (% WT): 2.7 % WT
R77A
  Binding Reactivity (% WT): 124 % WT
K42A
  Binding Reactivity (% WT): 131 % WT
E151A [3]
  Binding Reactivity (% WT): 4.8 % WT
E156A
  Binding Reactivity (% WT): 17.7 % WT
H114A
  Binding Reactivity (% WT): 114 % WT
G45A
  Binding Reactivity (% WT): 145 % WT
[4]
  % Positive hDC: 73%
[5]
  Kd: 960 pM
H154A [6]
  binding result: no binding
D152A [7]
  binding result: no binding
E151A [8]
  binding result: no binding
[9]
  % Positive hMAC: 26%
Mouse TREM2 on cells
  binding result: no binding
[10]
  MFI HEKhT2: 2910 MFI

— patent publication US20230295297A1 (Alector, published 2023)
